Reference: patent US20250101098A1 (R P SCHERER TECHNOLOGIES, published 2025)

T1: recombinant human Nectin-4-His protein (human, UniProt Q96NY8 32-349)
T1 construct: Rescreening antigen and bought ELISA antigen are treated as one molecule; also called human Nectin-4-His tagged; Ag1; not shown: His tag
T1 sequence: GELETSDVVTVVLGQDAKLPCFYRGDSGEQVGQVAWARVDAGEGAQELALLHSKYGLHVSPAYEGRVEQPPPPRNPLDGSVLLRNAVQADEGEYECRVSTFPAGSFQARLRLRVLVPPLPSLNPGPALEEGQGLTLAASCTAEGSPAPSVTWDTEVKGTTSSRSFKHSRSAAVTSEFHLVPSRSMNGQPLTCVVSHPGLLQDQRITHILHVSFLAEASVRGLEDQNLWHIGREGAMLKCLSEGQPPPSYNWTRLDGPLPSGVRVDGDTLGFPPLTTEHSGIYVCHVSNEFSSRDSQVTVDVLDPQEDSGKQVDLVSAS

T2: human nectin-4 protein expressed on the surface of cells (human, UniProt Q96NY8 32-510)
T2 sequence: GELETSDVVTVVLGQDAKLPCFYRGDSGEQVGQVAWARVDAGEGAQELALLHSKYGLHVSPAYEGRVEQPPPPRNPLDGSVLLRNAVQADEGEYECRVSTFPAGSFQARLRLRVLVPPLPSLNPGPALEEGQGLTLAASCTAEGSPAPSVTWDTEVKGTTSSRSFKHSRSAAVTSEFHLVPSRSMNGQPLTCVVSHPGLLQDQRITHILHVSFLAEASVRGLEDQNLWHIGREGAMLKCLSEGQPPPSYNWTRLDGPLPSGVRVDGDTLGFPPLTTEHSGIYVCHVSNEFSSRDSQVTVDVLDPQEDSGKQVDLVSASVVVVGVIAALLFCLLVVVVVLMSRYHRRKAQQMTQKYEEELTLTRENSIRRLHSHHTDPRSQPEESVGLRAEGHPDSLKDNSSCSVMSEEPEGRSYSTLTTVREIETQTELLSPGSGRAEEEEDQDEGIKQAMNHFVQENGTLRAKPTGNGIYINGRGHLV


Experiments:
[1] = target: T1, recombinant human Nectin-4-His protein; assay: ELISA, coated antigen
[2] = target: T2, human nectin-4 protein expressed on the …; assay: cell-based or functional assay

Binder	EC50 [1]	Cell kill IC50, HekNectin4 [2]	Cell kill IC50, MDA-MB468 [2]	Cell kill IC50, SKBR3 [2]
Nectin-4 5D9 VH3/VL3 (antibody, V domains shown, Humanized; also called 5D9 VH variant 3 / 5D9 VL variant 3) VH: QVQLQESGPGLVKPSETLSLTCTVSGGSITNYGVHWIRQPPGKGLEWLGVIWSGGSTDYNPSLKSRVTISVDTSKNQFSLKLSSVTAADTAVYYCARSGKWYYFDYWGQGTLVTVSS VL: DIQMTQSPSSLSASVGDRVTITCRASQSIYSNLAWYQQKPGKAPKLLVYAATNLASGVPSRFSGSGSGTDFTLTISSLQPEDFATYYCQHFWGTPTFGGGTKVEIK	23.9 nM	27.1 nM	15.6 nM	10.6 nM
Nectin-4 5D9 VH3/VL4 (antibody, V domains shown, Humanized; also called 5D9 VH variant 3 / 5D9 VL variant 4) VH: QVQLQESGPGLVKPSETLSLTCTVSGGSITNYGVHWIRQPPGKGLEWLGVIWSGGSTDYNPSLKSRVTISVDTSKNQFSLKLSSVTAADTAVYYCARSGKWYYFDYWGQGTLVTVSS VL: DIQMTQSPSSLSASVGDRVTITCRASENIYSNLAWYQQKPGKAPKLLVYAATNLADGVPSRFSGSGSGTDYTLTISSLQPEDFATYYCQHFWGTPTFGGGTKVEIK	43600 nM	41.1 nM	40.5 nM	26 nM
Nectin-4 5D9 VH4/VL3 (antibody, V domains shown, Humanized; also called 5D9 VH variant 4 / 5D9 VL variant 3) VH: QVQLQQSGPGLVKPSETLSLTCTVSGFSLTNYGVHWVRQPPGKGLEWLGVIWSGGSTDYNPSLKSRLTISRDTSKNQVSFKMSSVTAADTAVYYCARSGKWYYFDYWGQGTLVTVSS VL: DIQMTQSPSSLSASVGDRVTITCRASQSIYSNLAWYQQKPGKAPKLLVYAATNLASGVPSRFSGSGSGTDFTLTISSLQPEDFATYYCQHFWGTPTFGGGTKVEIK	0.204 nM	0.333 nM	3.71 nM	6.46 nM
Nectin-4 5D9 VH5/VL2 (antibody, V domains shown, Humanized; also called 5D9 VH variant 5 / 5D9 VL variant 2) VH: QVQLQESGPGLVKPSETLSLTCTVSGGSLTNYGVHWVRQPPGKGLEWIGVIWSGGSTNYNPSLKSRVTISRDTSKNQVSLKLSSVTAADTAVYYCARSGKWYYFDYWGQGTLVTVSS VL: DIQMTQSPSSLSASVGDTVTITCRASQNIYSNLAWYQQKQGKAPKLLVYAATNLADGVPSRFSGSGSGTDFTLKINSLQPEDFATYYCQHFWGTPTFGGGTKVEIK	2.06 nM	49.6 nM	17.5 nM	10.6 nM
Nectin-4 5D9 VH3/VL2 (antibody, V domains shown, Humanized; also called 5D9 VH variant 3 / 5D9 VL variant 2) VH: QVQLQESGPGLVKPSETLSLTCTVSGGSITNYGVHWIRQPPGKGLEWLGVIWSGGSTDYNPSLKSRVTISVDTSKNQFSLKLSSVTAADTAVYYCARSGKWYYFDYWGQGTLVTVSS VL: DIQMTQSPSSLSASVGDTVTITCRASQNIYSNLAWYQQKQGKAPKLLVYAATNLADGVPSRFSGSGSGTDFTLKINSLQPEDFATYYCQHFWGTPTFGGGTKVEIK	8.62 nM	54.8 nM	17.7 nM	15.3 nM
Nectin-4 5D9 VH3/VL5 (antibody, V domains shown, Humanized; also called 5D9 VH variant 3 / 5D9 VL variant 5) VH: QVQLQESGPGLVKPSETLSLTCTVSGGSITNYGVHWIRQPPGKGLEWLGVIWSGGSTDYNPSLKSRVTISVDTSKNQFSLKLSSVTAADTAVYYCARSGKWYYFDYWGQGTLVTVSS VL: DIQMTQSPSSLSASVGDRVTITCRASQSIYSNLAWYQQKPGKAPKLLVYAATNLQSGVPSRFSGSGSGTDFTLTISSLQPEDFATYYCQHFWGTPTFGGGTKVEIK	7.23 nM	40 nM	43.3 nM	14.9 nM
Nectin-4 5D9 VH2/VL5 (antibody, V domains shown, Humanized; also called 5D9 VH variant 2 / 5D9 VL variant 5) VH: QVQLQESGPGLVKPSETLSLTCTVSGFSITNYGVHWIRQPPGKGLEWLGVIWSGGSTDYNASLVSRVTISRDTSKSQFFLKLNSVQADDTAVYYCARSGKWYYFDYWGQGTTVTVSS VL: DIQMTQSPSSLSASVGDRVTITCRASQSIYSNLAWYQQKPGKAPKLLVYAATNLQSGVPSRFSGSGSGTDFTLTISSLQPEDFATYYCQHFWGTPTFGGGTKVEIK	14.7 nM	182 nM	252 nM	234 nM
Nectin-4 5D9 VH1/VL1 (antibody, V domains shown, Humanized; also called 5D9 VH variant 1 / 5D9 VL variant 1) VH: QVQLKESGPGLVQPSETLSLTCTVSGFSITNYGVHWIRQSPGKGLEWLGVIWSGGSTDYNAAFVSRVTISRDNSKSQVFFKLNSVQADDTAVYYCARSGKWYYFDYWGQGTTVTVSS VL: DIQMTQSPASLSASVGDTVTITCRASQNIYSNLAWYQQKQGKSPQLLVYAATNLADGVPSRFSGSGSGTQYTLKINSLQSEDFGTYYCQHFWGTPTFGGGTKVEIK	0.225 nM	0.249 nM	1.42 nM	15 nM
Nectin-4 5D9 VH1/VL4 (antibody, V domains shown, Humanized; also called 5D9 VH variant 1 / 5D9 VL variant 4) VH: QVQLKESGPGLVQPSETLSLTCTVSGFSITNYGVHWIRQSPGKGLEWLGVIWSGGSTDYNAAFVSRVTISRDNSKSQVFFKLNSVQADDTAVYYCARSGKWYYFDYWGQGTTVTVSS VL: DIQMTQSPSSLSASVGDRVTITCRASENIYSNLAWYQQKPGKAPKLLVYAATNLADGVPSRFSGSGSGTDYTLTISSLQPEDFATYYCQHFWGTPTFGGGTKVEIK	0.228 nM	0.277 nM	5.17 nM	9.02 nM
Nectin-4 5D9 VH1/VL2 (antibody, V domains shown, Humanized; also called 5D9 VH variant 1 / 5D9 VL variant 2) VH: QVQLKESGPGLVQPSETLSLTCTVSGFSITNYGVHWIRQSPGKGLEWLGVIWSGGSTDYNAAFVSRVTISRDNSKSQVFFKLNSVQADDTAVYYCARSGKWYYFDYWGQGTTVTVSS VL: DIQMTQSPSSLSASVGDTVTITCRASQNIYSNLAWYQQKQGKAPKLLVYAATNLADGVPSRFSGSGSGTDFTLKINSLQPEDFATYYCQHFWGTPTFGGGTKVEIK	0.368 nM	3.35 nM	10.3 nM	9.85 nM
Nectin-4 5D9 VH2/VL1 (antibody, V domains shown, Humanized; also called 5D9 VH variant 2 / 5D9 VL variant 1) VH: QVQLQESGPGLVKPSETLSLTCTVSGFSITNYGVHWIRQPPGKGLEWLGVIWSGGSTDYNASLVSRVTISRDTSKSQFFLKLNSVQADDTAVYYCARSGKWYYFDYWGQGTTVTVSS VL: DIQMTQSPASLSASVGDTVTITCRASQNIYSNLAWYQQKQGKSPQLLVYAATNLADGVPSRFSGSGSGTQYTLKINSLQSEDFGTYYCQHFWGTPTFGGGTKVEIK	0.279 nM	3.93 nM	21.4 nM	14.7 nM

Further binders by falling EC50 [1], results first:

EC50 [1]	Binder	Cell kill IC50, HekNectin4 [2]	Cell kill IC50, MDA-MB468 [2]	Cell kill IC50, SKBR3 [2]
172 nM	Nectin-4 5D9 VH2/VL2 (antibody, V domains shown, Humanized; also called 5D9 VH variant 2 / 5D9 VL variant 2) VH: QVQLQESGPGLVKPSETLSLTCTVSGFSITNYGVHWIRQPPGKGLEWLGVIWSGGSTDYNASLVSRVTISRDTSKSQFFLKLNSVQADDTAVYYCARSGKWYYFDYWGQGTTVTVSS VL: DIQMTQSPSSLSASVGDTVTITCRASQNIYSNLAWYQQKQGKAPKLLVYAATNLADGVPSRFSGSGSGTDFTLKINSLQPEDFATYYCQHFWGTPTFGGGTKVEIK	55.5 nM	19.3 nM	14.4 nM
108 nM	Nectin-4 5D9 VH2/VL3 (antibody, V domains shown, Humanized; also called 5D9 VH variant 2 / 5D9 VL variant 3) VH: QVQLQESGPGLVKPSETLSLTCTVSGFSITNYGVHWIRQPPGKGLEWLGVIWSGGSTDYNASLVSRVTISRDTSKSQFFLKLNSVQADDTAVYYCARSGKWYYFDYWGQGTTVTVSS VL: DIQMTQSPSSLSASVGDRVTITCRASQSIYSNLAWYQQKPGKAPKLLVYAATNLASGVPSRFSGSGSGTDFTLTISSLQPEDFATYYCQHFWGTPTFGGGTKVEIK	33.7 nM	21.4 nM	15.9 nM
0.346 nM	Nectin-4 5D9 VH1/VL5 (antibody, V domains shown, Humanized; also called 5D9 VH variant 1 / 5D9 VL variant 5) VH: QVQLKESGPGLVQPSETLSLTCTVSGFSITNYGVHWIRQSPGKGLEWLGVIWSGGSTDYNAAFVSRVTISRDNSKSQVFFKLNSVQADDTAVYYCARSGKWYYFDYWGQGTTVTVSS VL: DIQMTQSPSSLSASVGDRVTITCRASQSIYSNLAWYQQKPGKAPKLLVYAATNLQSGVPSRFSGSGSGTDFTLTISSLQPEDFATYYCQHFWGTPTFGGGTKVEIK	1.41 nM	10.2 nM	10.1 nM
0.321 nM	Nectin-4 5D9 VH1/VL3 (antibody, V domains shown, Humanized; also called 5D9 VH variant 1 / 5D9 VL variant 3) VH: QVQLKESGPGLVQPSETLSLTCTVSGFSITNYGVHWIRQSPGKGLEWLGVIWSGGSTDYNAAFVSRVTISRDNSKSQVFFKLNSVQADDTAVYYCARSGKWYYFDYWGQGTTVTVSS VL: DIQMTQSPSSLSASVGDRVTITCRASQSIYSNLAWYQQKPGKAPKLLVYAATNLASGVPSRFSGSGSGTDFTLTISSLQPEDFATYYCQHFWGTPTFGGGTKVEIK	2.94 nM	10.3 nM	9.36 nM
0.195 nM	Nectin-4 5D9 VH4/VL5 (antibody, V domains shown, Humanized; also called 5D9 VH variant 4 / 5D9 VL variant 5; Nectin-4 VH4/VL5) VH: QVQLQQSGPGLVKPSETLSLTCTVSGFSLTNYGVHWVRQPPGKGLEWLGVIWSGGSTDYNPSLKSRLTISRDTSKNQVSFKMSSVTAADTAVYYCARSGKWYYFDYWGQGTLVTVSS VL: DIQMTQSPSSLSASVGDRVTITCRASQSIYSNLAWYQQKPGKAPKLLVYAATNLQSGVPSRFSGSGSGTDFTLTISSLQPEDFATYYCQHFWGTPTFGGGTKVEIK	0.269 nM	3.93 nM	7.25 nM
